Test results as given in publication PMC3229523, “Identification of Lactoferricin B Intracellular Targets Using an Escherichia coli Proteome Chip” (PLoS ONE, 2011).
Ends that are not written are not given here. * marks the point of attachment. Biotin = O=C1N[C@H]2[C@H](CS[C@H]2CCCCC(=O)*)N1

Assays:
Experiment in all cases: peptide or protein array; E. coli proteome chip: purified His-tagged proteins printed in duplicate on Fullmoon slides, blocked with 1% BSA; 10 nM N-terminal biotinylated LfcinB with 1% BSA, room temperature, 1 h; detected with DyLight 649-labeled streptavidin, ratio to DyLight 549-labeled anti-His antibody; ProCAT normalisation, local cut-off; triplicate chips
Conditions in all cases: both partners purified
[1] = biological target: T1, NrdD (E. coli K-12, UniProt P28903 1-712)
T1 construct: NrdD, ribonucleotide reductase family, E. coli K-12
T1 sequence (looked up): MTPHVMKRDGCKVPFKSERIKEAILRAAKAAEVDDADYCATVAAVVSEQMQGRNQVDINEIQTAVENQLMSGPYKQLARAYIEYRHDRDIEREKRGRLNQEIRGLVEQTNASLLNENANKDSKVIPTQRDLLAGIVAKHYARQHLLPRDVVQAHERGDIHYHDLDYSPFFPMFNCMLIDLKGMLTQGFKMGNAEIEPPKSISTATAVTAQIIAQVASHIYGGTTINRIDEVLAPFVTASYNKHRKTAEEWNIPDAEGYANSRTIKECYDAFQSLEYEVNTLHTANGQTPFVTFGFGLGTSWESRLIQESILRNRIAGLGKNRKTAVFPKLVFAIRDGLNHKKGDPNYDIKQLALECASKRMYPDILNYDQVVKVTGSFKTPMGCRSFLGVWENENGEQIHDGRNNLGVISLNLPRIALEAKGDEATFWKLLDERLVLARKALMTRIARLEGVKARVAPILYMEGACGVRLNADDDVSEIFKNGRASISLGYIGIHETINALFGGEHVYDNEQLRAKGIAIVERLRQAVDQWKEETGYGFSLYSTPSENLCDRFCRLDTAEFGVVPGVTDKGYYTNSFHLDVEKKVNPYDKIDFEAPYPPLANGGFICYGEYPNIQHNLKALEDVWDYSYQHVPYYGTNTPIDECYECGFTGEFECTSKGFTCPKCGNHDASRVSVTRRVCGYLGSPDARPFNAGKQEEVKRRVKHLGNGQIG

[2] = biological target: T2, YbeQ (E. coli K-12, UniProt P77234 1-325)
T2 construct: YbeQ, E. coli K-12
T2 sequence (looked up): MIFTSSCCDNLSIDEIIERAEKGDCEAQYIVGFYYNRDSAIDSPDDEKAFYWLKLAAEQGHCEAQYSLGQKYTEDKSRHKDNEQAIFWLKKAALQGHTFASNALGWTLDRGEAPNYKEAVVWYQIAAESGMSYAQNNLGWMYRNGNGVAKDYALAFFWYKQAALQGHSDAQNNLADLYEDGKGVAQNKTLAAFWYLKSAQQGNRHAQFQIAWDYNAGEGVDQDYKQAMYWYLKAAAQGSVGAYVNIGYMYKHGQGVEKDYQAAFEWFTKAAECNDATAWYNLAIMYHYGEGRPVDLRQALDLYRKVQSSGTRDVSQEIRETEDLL

[3] = biological target: T3, YjgL (E. coli K-12, UniProt P39336 1-604)
T3 construct: YjgL, E. coli K-12
T3 sequence (looked up): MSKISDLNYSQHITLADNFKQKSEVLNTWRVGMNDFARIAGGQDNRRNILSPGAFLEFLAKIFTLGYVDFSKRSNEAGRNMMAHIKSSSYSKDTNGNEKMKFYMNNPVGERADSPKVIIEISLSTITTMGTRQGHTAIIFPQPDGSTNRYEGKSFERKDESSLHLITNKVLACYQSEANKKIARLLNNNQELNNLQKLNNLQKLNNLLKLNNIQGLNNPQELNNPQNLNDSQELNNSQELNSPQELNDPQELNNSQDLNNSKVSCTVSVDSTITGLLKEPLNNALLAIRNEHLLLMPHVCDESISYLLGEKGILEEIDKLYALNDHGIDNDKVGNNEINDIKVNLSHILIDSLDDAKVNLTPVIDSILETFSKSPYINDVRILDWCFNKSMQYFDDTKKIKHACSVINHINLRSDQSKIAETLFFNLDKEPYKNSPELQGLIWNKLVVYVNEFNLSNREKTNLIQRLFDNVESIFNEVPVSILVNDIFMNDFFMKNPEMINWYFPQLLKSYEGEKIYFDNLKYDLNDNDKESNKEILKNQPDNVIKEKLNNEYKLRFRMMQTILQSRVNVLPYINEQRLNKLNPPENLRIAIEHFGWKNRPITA

[4] = biological target: T4, YbaO (E. coli K-12, UniProt P0ACJ5 1-152)
T4 construct: YbaO, E. coli K-12
T4 sequence (looked up): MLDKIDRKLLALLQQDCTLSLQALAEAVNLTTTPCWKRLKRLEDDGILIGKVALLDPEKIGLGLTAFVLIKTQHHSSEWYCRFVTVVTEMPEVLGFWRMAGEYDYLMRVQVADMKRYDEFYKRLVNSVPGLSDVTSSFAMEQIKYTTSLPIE

[5] = biological target: T5, YjdK (E. coli K-12, UniProt P0AF61 1-98)
T5 construct: YjdK, E. coli K-12
T5 sequence (looked up): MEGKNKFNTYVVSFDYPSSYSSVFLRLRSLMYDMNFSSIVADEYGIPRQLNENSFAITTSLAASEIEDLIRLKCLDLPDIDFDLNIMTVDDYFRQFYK

Measured: binding result

B1: N-terminal biotinylated Lactoferricin B (peptide, UniProt P24627 36-60, looked up)
peptide: Biotin-FKCRRWQWRMKKLGAPSITCVRRAF
modifications: ends and bridges not checked
notes: lactoferricin B (LfcinB), cationic antimicrobial peptide of 25 amino acids; also called biotinylated LfcinB; biotin-labeled LfcinB; source: bought: Kelowna Inc
binds: all assays above
